Test results: the DeepSol protein solubility set

test: soluble on expression in E. coli; label from the status in PepcDB or PDB records

Sequence	soluble on expression in E. coli
MGSDKIHHHHHHVPVRDGLQPLFVAAPLHAGGRPAAFGLKDRVMADNTTSTALLDLRGVRKTFLTPDRRERTVLEGVDFKLEEGEIVALLGKSGSGKSTLLRIMAGLIKANGGEVKYRGHLMTGPAKGISMVFQSFALFPWLTVEENVELGLEAAGIPKAEREDRANEAIDLIGLGGYESAYPKELSGGMRQRVGFARALVMRPDVLLLDEPFSALDVLTSETLREDLLELWDERKIPTKGILLVSHNIEEAVSMADRVLVFSSDPGRVRAEIRVNLPRPRDTESAAFRQIVDEVYTLMTANVRGGGVGATEQLTLGYRLPDTTPGKMAGLLETVAEAPFNGRADLPQLAEETELEDDQLFHLFEGLRVLGLARIAAGDIFVTHSGQAFVEADDAHRKELFAEALVKNIPLAAHIRRVLDERKDHRAPEDRFLQELQDYLTDDEAERVLETTITWGRYAEIFDYDYNAGVLMLPEEVVEELEAGEETRDDPGARE	not soluble
MNETIRRILAESGTKTSKIRKLLLIGLSHREIADLLTRGNRGFVWNVYKRMRDEGLLPASQTATVLRPEPDYTFNRCFGVEIEAYNCPRQTLTDALREAGIPVEIGSRNAETNSNWKLTTDGSLEGSHTFELVSPILCGEQGLEVLERVCWVLDAYNVKINSSCGVHVHFNAGDFNLTTWQNLILSYKHAETEIDKFMPASRRGNRNTYCRSLRGFSDEDIRSAESIESLQRLFGSRYMKVNLEAYSRHRTVEFRQHSGTINFTKIENWVRFLGRMIIFASTASLPAGIRLEDFPFLGEKQKLYYKLRTKKLMV	not soluble
MSLARTEKIYIYGASGHGLVCEDVAKNMGYKECIFLDDFKGMKFESTLPKYDFFIAIGNNEIRKKIYQKISENGFKIVNLIHKSALISPSAIVEENAGILIMPYVVINAKAKIEKGVILNTSSVIEHECVIGEFSHVSVGAKCAGNVKIGKNCFLGINSCVLPNLSLADDSILGGGATLVKNQDEKGVFVGVPAKRMEGGSHHHHHH	soluble
MLELYHRKKLFNLLKAPLKKKPFFFIYNTKQTYRDKTPMRNIDFSKLHLSEDVRANEKVHNKRNLFMSNKIIHYLPPKRHD	not soluble
MAHHHHHHMATISRRDGRTAREMRGKELRTSDLSQFDGSAWYSQGLTAVTVAINGPTAARQENYRRCTTCIHVNRAARIPQEGGTGRLIMMERRERERCEDGELKQFLTSLVEAIVCLDRFPRCVLEAHVTVLMDDGALFAVASNAIMCALLDAGVPCRSTIAAVSLIMCNPEASGNEGEPEIFLDPTAVEESTDEVRSYASATFVLTNTGGEAVLASRVQARPRSSAYSRPITPKDLSRMFALAAKAAETLFVFFRNCSMALE	not soluble
MGSDKIHHHHHHMPLLDIRNLTIELNTNNTKVKVLEKVSLTLNAGEIHGLVGESGSGRSLLAKAILGALGPQWTVIADRLMLDGKNLLDMSPKQRRCLMGSDIAMIFQDPSGSLDPVKTIGSQLIESMTPNKAVAFWRRGKDTYLNALKWLHKVGIKNPKSLMSCYPWELSEGECQKVMIAMAIANRPKLLIADEPTNSVELNAQAQIFRLLSQLNQLQNVSILLISHELETLVQWCDHLTVLYGGQVMESGPTDEMIAHPFHPYTKALLKNLPDYTGKMRHKSYLPTLQGSSPSLHNMPAGCRLGPRCPEAQRNCVKQPALEHQKDRYFACHFPYLNEQDTDDDAIA	not soluble
MRISTLQGQYQCIIIDPPWFYRLRSKDKTHRNRIPYQPMRTPEILALPIPDLCDAGGCVLWLWFTNNHMIEAAQCLQRWGFDLKTILTWGKVTKDGTKTHLGVGHWLRNSTEHCALAVRGNVKAFAGQTSTTGGTPTLTNQSTILHSPRREHSRKPPEFFELVEKLCPDMTKLEIFARESRDGWDCWGDQADLFDASDEEILVKAEKVLLLEHHHHHH	not soluble
MSLSRGRLKIAVPRLQRVANFDDLDPLVAEPDIDLQWIQPGSPIPADVDVVVLPGSKATRTELDLMRREGWDIDIHAHVRRGGRVVGLCAGFQMLGKVVRDPQGIEGPAGETAGLGLLDIETEISGDKRLIEIDAVDRISGCRVVGYEMHMGRTTGAGLARPWLRLEEGGSERAEGAVSADGRVSGGYLHGIFGGDAFRSAWLAQIGAASSGLDFERRVEETLDALADHCESNLDLDALLALAREGHHHHHH	soluble
MGSDKIHHHHHHVDGSTMIARNDDTFLPLTPQRFYVHPAEKNQPKRTWVSNQNGFTAPIPSDGYRYLATPNVEVDKEGVYAESGFNEKNVAMSATESVYGNPAALAIDPLVQNGLAEDSLQTMVLPYINSARDGVRYLGQLIKQYGSPEGNGVLFSDHDEVWYMEIVTGHHWVAQRIPDDAYAITANQVAIQQVSFDDPDNFMFSDGIQDFVTENHLNPDQAGWNFRHIFGTDTEKDRHYNTPRVWFGQRYLNPEIEQDPQSSDLPFICRTSHKISVEDVEYILSSHYNETKYDPFGQGAEADRLKFRPISMNRTQNSHVLQLRNDVPADRSAIFWLCFGVPAFSPYVPFFANVTDTDPTYSDTPVRLDDQSAYWMYRKLSMIVESHYSHFIEQDTDYLTATKQQLRTHVAKTLADAAALTGDELTAYLTAQNHQIVAAMRQSTTQFTNELIEKGLTLSKLTFNMDKNL	not soluble
MLENYARFITAASAARNPSPIRTMTDILSRGPKSMISLAGGLPNPNMFPFKTAVITVENGKTIQFGEEMMKRALQYSPSAGIPELLSWLKQLQIKLHNPPTIHYPPSQGQMDLCVTSGSQQGLCKVFEMIINPGDNVLLDEPAYSGTLQSLHPLGCNIINVASDESGIVPDSLRDILSRWKPEDAKNPQKNTPKFLYTVPNGNNPTGNSLTSERKKEIYELARKYDFLIIEDDPYYFLQFNKFRVPTFLSMDVDGRVIRADSFSKIISSGLRIGFLTGPKPLIERVILHIQVSTLHPSTFNQLMISQLLHEWGEEGFMAHVDRVIDFYSNQKDAILAAADKWLTGLAEWHVPAAGMFLWIKVKGINDVKELIEEKAVKMGVLMLPGNAFYVDSSAPSPYLRASFSSASPEQMDVAFQVLAQLIKESL	soluble
MNSKKVLFIIFICALTVTGCDTQEQTTIDSGLTLIRATQTLDSLYANYSVSGTCLLRENYPSNVGNYTATYLASEEQKEIPNQYSYLWPYSGTFSAVNALCAATGDESYKTLLDNKVLRGLEKYLDISRSPAGYASYINTASQSDRFYDDNIWLGIDFTDAYLNTKEEKYLKKAQLIWKFIESGADDKLGGGIYWCEQKKVSKNTCSNAPASVFALKMFKAIRDSSYLIKGQELYEWTKKRLQDSTDYLYFDNISLDGKIDKSKYAYNSGQMMQAATLLYQLTGRSHFLKDAQNIAKACYNYFFINFIPEEGEPFKLLKKGDVWFTAVMLRGFIELYQTDHNKTYINSFNQNMDYAWEHVRDEKGLFDIDFSGRTHDDRKWLLTQAAMVEMYARLAVTKLEHHHHHH	not soluble
LAEGKEIPCFALTSPEAGSDAGSIPDYGVVTKGMWEGEEVVGMRITWNKRYITLAPVATVLGLAFKLQDPDGLLGDKKDLGITCALIPTDLDGVKIGRRHFPLNVPFQNGPTQGNDLFVPLDYIIGG	not soluble
MRRVGESSTGDRKALRSGLKRQGSADEDDIESIFSGIGSARINEPKAKKDDDESNEEKYFSVGKDGRRYHEGLPVYTTEELHLGDGGGDTEDCPIYCDCCL	not soluble
MGSDKIHHHHHHMSKVFIVGAAGNVGRRLTQQLAQRGHTLMAMHRHPDQADAIQAAGGVSVLGDITQISATDLATLMSGNDAIVFSAGAGGKGIQLTNDVDGKGLELAVEAAQLAGIQRFILVSVFPDALRGGSVSASFENYMLVKKHADVHLVSTDLDWVILRPGTLLDEVGTGKVNAAVAIPYGSVSRDDVAATLVELIEQPKVNRIIIELTQGEIPINDAISRLVAQ	not soluble
MGFQLRGTGTQELSIKELDLSARDAYGTTIKMLKQQLESSGVRVHAGAPYKLVLLSEENSQRTLSYTGGGNSAEYEIGTTLRYEILTHDNLHLLDDKLEVQKVFLHDGNNITGSDQESSETRKEMRRDLIQRMLIRLQLLTPEQLAQLQATAEAKAKAEADALEAARKAEAETPQQSPMELPNQLEHHHHHH	not soluble
